# Measurements taken from patent publication US5977435A, “Plant phosphatases” (Performance Plants, Inc., priority 1997, dated 1999).
# Several values for one entry are separate records, joined by “and”; a condition that tells them apart may be missing. Identical values can stand only once.
# Experiments:
# [1] = molecular target: potato tuber phosphatase (PTAP) (potato (Solanum tuberosum L. cv. Chiefton))
# [2] = molecular target: egg yolk storage phosphoprotein, phosvitin (Gallus gallus (Chicken)) (UniProt P02845)
# [3] = test system: P-Tyr phosphatase from Escherichia coli; settings: E. coli P-Tyr phosphatase; cited from earlier work
# potato phosphatase [4] = molecular target: T1, potato phosphatase (Solanum tuberosum, UniProt Q6J5M8); assay: Phosphatase assay B, substrate specificity; settings: purified potato phosphatase, assay B, pH 5.8, 25° C
# T1 sequence (Q6J5M8 with tags, fused parts or gaps V118I/E238V/S277N/V282G/E319A/A394T/S415A/T416I/D418E/I426Y/H428S/N437A): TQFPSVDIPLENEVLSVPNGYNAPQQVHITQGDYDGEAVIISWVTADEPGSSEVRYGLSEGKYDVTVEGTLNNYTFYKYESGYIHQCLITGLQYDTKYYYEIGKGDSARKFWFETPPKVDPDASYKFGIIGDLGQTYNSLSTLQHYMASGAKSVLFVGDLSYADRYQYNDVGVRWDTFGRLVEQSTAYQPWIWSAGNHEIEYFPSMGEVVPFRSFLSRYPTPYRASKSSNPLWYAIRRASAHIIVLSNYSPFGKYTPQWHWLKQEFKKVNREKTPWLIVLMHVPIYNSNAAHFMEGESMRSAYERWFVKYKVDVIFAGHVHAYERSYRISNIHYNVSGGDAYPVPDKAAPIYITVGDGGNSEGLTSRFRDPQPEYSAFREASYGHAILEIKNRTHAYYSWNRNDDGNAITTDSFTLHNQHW
# Protocol: Phosphatase activity was determined using assay B and a wide range of compounds, tested at a total concentration of 5 mM unless otherwise specified.
# (§1) Phosphatase (0.05 units) was incubated in 1.5 mL cuvettes with 0.9 mL of 50 mM MES-NaOH (pH 5.8) containing 4 mM MgCl2 and an alternative substrate (5 mM unless otherwise indicated) for 6 min at 25° C. Reactions were terminated by the sequential addition of 0.1 mL reagent A (3 M H2 SO4 containing 20 mM ammonium molybdate) and […] of 1% (v/v) Triton X-100. Samples were incubated at 25° C. for 20 min and the A660 was determined. To calculate activities, a standard curve over the range of […] Pi was constructed for each set of assays. Assays were performed in triplicate and controls were run for background amounts of Pi present at each substrate concentration by adding reagent A before the enzyme.
# [5] = molecular target: minor 28-kD potato tuber phosphatase isoform; settings: cited from earlier work
# [6] = substrate: O=[N+]([O-])c1ccc(OP(=O)(O)O)cc1; assay: purified protein, by the assay type; settings: other: apparent Km, purified potato phosphatase, assay B; pH 5.8; 25.0 °C
# [7] = substrate: NC(COP(=O)(O)O)C(=O)O; assay: purified protein, by the assay type; settings: other: apparent Km, purified potato phosphatase, assay B; pH 5.8; 25.0 °C
# [8] = substrate: C=C(OP(=O)(O)O)C(=O)O; assay: purified protein, by the assay type; settings: other: apparent Km, purified potato phosphatase, assay B; pH 5.8; 25.0 °C
# [9] = substrate: N[C@@H](Cc1ccc(OP(=O)(O)O)cc1)C(=O)O; assay: purified protein, by the assay type; settings: other: apparent Km, purified potato phosphatase, assay B; pH 5.8; 25.0 °C
# Protocol: (§3) Phosphatase (0.05 units) was incubated in 1.5 mL cuvettes with 0.9 mL of 50 mM MES-NaOH (pH 5.8) containing 4 mM MgCl2 and an alternative substrate (5 mM unless otherwise indicated) for 6 min at 25° C. Reactions were terminated by the sequential addition of 0.1 mL reagent A (3 M H2 SO4 containing 20 mM ammonium molybdate) and 10 ml of 1% (v/v) Triton X-100. Samples were incubated at 25° C. for 20 min and the A660 was determined. To calculate activities, a standard curve over the range of 0.01 to 1.0 mmol Pi was constructed for each set of assays. Assays were performed in triplicate and controls were run for background amounts of Pi present at each substrate concentration by adding reagent A before the enzyme. Hydrolysis was proportional to enzyme concentrations between 0.005 to 0.1 units/mL and remained linear with time for at least 15 min.
# (§4) All kinetic parameters are the means of duplicate determinations performed on two separate preparations of the purified enzyme, and are reproducible to within ±10% SE.
# [10] = substrate: Nc1ncnc2c1ncn2[C@@H]1O[C@H](COP(=O)(O)OP(=O)(O)OP(=O)(O)O)[C@@H](O)[C@H]1O; assay: purified protein, by the assay type; settings: other: apparent Km, purified potato phosphatase, assay B; pH 5.8; 25.0 °C
# Protocol: as §3, §4
# [11] = Heat-stability of the phosphatase; assay type: physicochemical
# Protocol: The phosphatase was relatively heat-stable, losing 0, 52, and 90% of its original activity when incubated for 4 min at 65, 70 and 75° C., respectively.
# potato phosphatase [12] = molecular target: T1, potato phosphatase; assay: Specific activity of purified potato tuber phosphatase; assay type: biochemical; set-up: mature chain from Thr30, C-terminus not determined
# Protocol: As an initial step towards the isolation of plant phosphatase genes, the predominant phosphatase from potato tuber was purified to a final P-Tyr-hydrolyzing specific activity of 1917 units/mg (Gellatly et al, 1994). Only a single peak of activity was recovered following chromatography on columns of S-Sepharose, phosphocellulose and Phenyl Superose (Gellatly et al, 1994). One unit is defined as the μmoles of Pi produced per min at 25° C. The enzyme was purified 2289-fold to a final PEP-hydrolyzing specific activity of 618 units/mg and an overall recovery of 31% (Gellatly et al, 1994). With P-Tyr as substrate the final specific activity was increased to approximately 1900 units/mg (Table 1). This final specific activity was higher than any reported for a purified plant phosphatase (Duff et al, 1994).
# (§2) Assays were initiated by the addition of enzyme preparation. One unit of phosphatase activity is defined as the quantity of enzyme that would catalyze the hydrolysis of 1 […] of substrate/min at 25° C.
# as §1, with “enzyme. Hydrolysis was proportional to enzyme concentrations between 0.005 to 0.1 units/mL and remained linear with time for at least 15 min.” for “enzyme.”
# Potato tuber phosphatase was purified by the method of Gellatly et al. (1994).
# [13] = test system: potato tuber phosphotyrosyl proteins; assay: Dephosphorylation of potato tuber phosphotyrosyl proteins by potato tuber phosphatase; assay type: biochemical, Solanum tuberosum; settings: + 30 units/mL phosphatase
# Protocol: A desalted potato tuber extract was incubated at 25° C. in the absence (-) and presence (+) of 30 units/mL purified potato tuber phosphatase. Aliquots were removed at 2 and 19 h and analyzed by immunoblotting using anti-(P-Tyr) IgG (Kamps and Sefton, 1988). The relative P-Tyr content of the 7 antigenic polypeptides was estimated by laser densitometric quantification of the immunoblots as described in the examples. Unless otherwise noted, all values represent the means±SE of triplicate determinations. ^a, the mean of duplicate determinations.
# Electroblotting was performed by the method of Moorhead and Plaxton (1990), with the addition of […] o-vanadate to the transfer buffer when maintenance of phosphotyrosyl residues was desired. All immunoblots to be probed with the anti-(black mustard PEP-specific phosphatase) IgG (Duff et al, 1991a) were first pre-treated with sodium m-periodate according to Laine (1988) so as to oxidize antigenic oligosaccharide chains of endogenous tuber glycoproteins. Immunological detection of phosphotyrosylated tuber proteins using anti-(P-Tyr) IgG (Kamps and Sefton, 1988) was performed as referenced above except that the blocking buffer contained 5% (w/v) bovine serum albumin (fraction V) and 1% (w/v) ovalbumin instead of 3% (w/v) defatted milk powder.
# Antigenic polypeptides were visualized using an alkaline-phosphatase-taggedsecondary antibody (Moorhead and Plaxton, 1990). Immunological specificities were confirmed by performing immunoblots in which rabbit preimmune serum was substituted for the affinity-purified IgGs. An LKB Ultroscan XL Enhanced Laser Densitometer was used to scan indicated immunoblots. Densitometric data were analysed using the LKB Gelscan XL software (version 2.1). Immunoreactive polypeptides were quantified in terms of their relative absorbance at 633 nm wavelength (A633).
# Peeled and diced potato tuber tissue (5 g) was homogenized with a Polytron in 1 volume of 100 mM MES-NaOH (pH 5.8) containing 2 mM PMSF, 2 mM DTT, and 1 mM EDTA. The homogenate was centrifuged for 10 min at 13,000 g in an Eppendorf microfuge, and a 3-mL aliquot of the supernatant fluid was passed at 4° C. through a BioRad Econo-Pac 10DG desalting column that had been pre-equilibrated in homogenization buffer lacking PMSF. Aliquots (0.1 mL) of the desalted crude extract were incubated at 25° C. with and without 3 units of the purified potato phosphatase. Samples were removed at 0, 2 and 19 h and analyzed by immunoblotting using the anti-(P-Tyr) IgG as described supra. Laser densitometric scanning and immunoquantification of the blots was performed as described supra.
# potato phosphatase [14] = molecular target: T1, potato phosphatase; assay: Effect of pH on phosphatase activity (assay A with PEP); assay type: biochemical; set-up: mature chain from Thr30, C-terminus not determined; settings: pH/activity profile
# Protocol: Unless otherwise stated all kinetic studies of the potato phosphatase were performed with PEP using assay A (infra).
# All subsequent kinetic studies were carried out at pH 5.8.
# as §2
molecule,measurement,setting,value
"egg yolk storage phosphoprotein, phosvitin (from UniProt P02845)",Relative Activity (%) of potato phosphatase with 0.25 mM PEP,[1],19%
potato tuber phosphatase (PTAP) (enzyme),phosphoprotein phosphatase activity,[2],220 units/mg
"N[C@@H](Cc1ccc(OP(=O)(O)O)cc1)C(=O)O [P-Tyr, o-phospho-L-tyrosine]",Km,[3],> 6000 µM
NC(COP(=O)(O)O)C(=O)O (stereo not drawn) [P-Ser],Vmax,potato phosphatase [4],389 units/mg
same,dephosphorylation by the minor 28-kD isoform,[5],inability to catalyze dephosphorylation
potato phosphatase (Solanum tuberosum) (protein) TQFPSVDIPLENEVLSVPNGYNAPQQVHITQGDYDGEAVIISWVTADEPGSSEVRYGLSEGKYDVTVEGTLNNYTFYKYESGYIHQCLITGLQYDTKYYYEIGKGDSARKFWFETPPKVDPDASYKFGIIGDLGQTYNSLSTLQHYMASGAKSVLFVGDLSYADRYQYNDVGVRWDTFGRLVEQSTAYQPWIWSAGNHEIEYFPSMGEVVPFRSFLSRYPTPYRASKSSNPLWYAIRRASAHIIVLSNYSPFGKYTPQWHWLKQEFKKVNREKTPWLIVLMHVPIYNSNAAHFMEGESMRSAYERWFVKYKVDVIFAGHVHAYERSYRISNIHYNVSGGDAYPVPDKAAPIYITVGDGGNSEGLTSRFRDPQPEYSAFREASYGHAILEIKNRTHAYYSWNRNDDGNAITTDSFTLHNQHW,Km,[6],1100 µM
same,Km,[7],620 µM
same,Km,[8],1520 µM
same,Km,[9],990 µM
same,Vmax,[9],1917 units/mg
same,Km,[10],2160 µM
same,Vmax,[10],368 units/mg
PTAP: potato tuber acid phosphatase purified from Solanum tuberosum tubers; 57 and 55 kD subunits (protein) TQFPSVDIPLENEVLSVPNGYNAPQQVHITQGDYDGEAVIISWVTADEPGSSEVRYGLSEGKYDVTVEGTLNNYTFYKYESGYIHQCLITGLQYDTKYYYEIGKGDSARKFWFETPPKVDPDASYKFGIIGDLGQTYNSLSTLQHYMASGAKSVLFVGDLSYADRYQYNDVGVRWDTFGRLVEQSTAYGPWIWSAGNHEIEYFPSMGEVVPFRSFLSRYPTPYRASKSSNPLWYAIRRASAHIIVLSNYSPFGKYTPQWHWLKQEFKKVNREKTPWLIVLMHVPIYNSNAAHFMEGESMRSAYERWFVKYKVDVIFAGHVHAYERSYRISNIHYNVSGGDAYPVPDKAAPIYITVGDGGNSEGLTSRFRDPQPEYSAFREASYGHAILEIKNRTHAYYSWNRNDDGNAITTDSFTLHNQHW,loss of original activity,[11]; incubated 4 min at 65° C,0%
same,loss of original activity,[11]; incubated 4 min at 70° C,52%
same,loss of original activity,[11]; incubated 4 min at 75° C,90%
same,o-phospho-L-tyrosine (P-Tyr) hydrolyzing specific activity,potato phosphatase [12]; final purified preparation,1917 μmol Pi produced min^-1 mg^-1 of protein
same,PEP-hydrolyzing specific activity,"potato phosphatase [12]; final purified preparation, substrate PEP",618 units/mg
same,p-nitrophenyl phosphate-hydrolyzing specific activity,potato phosphatase [12]; purified PTAP sample used for microprobe analysis,618 units/mg
same,Relative phosphotyrosyl content after incubation at 25° C,"[13]; 20 kD polypeptide, 2h",66 ± 5 % initial value
same,Relative phosphotyrosyl content after incubation at 25° C,"[13]; 20 kD polypeptide, 19h",12 ± 3 % initial value
same,Relative phosphotyrosyl content after incubation at 25° C,"[13]; 34 kD polypeptide, 2h",40 ± 3 % initial value
same,Relative phosphotyrosyl content after incubation at 25° C,"[13]; 34 kD polypeptide, 19h",16 + 2 % initial value
same,Relative phosphotyrosyl content after incubation at 25° C,"[13]; 85 kD polypeptide, 2h",69 ± 2 % initial value
same,Relative phosphotyrosyl content after incubation at 25° C,"[13]; 85 kD polypeptide, 19h",34 ± 2 % initial value
same,Relative phosphotyrosyl content after incubation at 25° C,"[13]; 102 kD polypeptide, 2h",60 ± 5 % initial value
same,Relative phosphotyrosyl content after incubation at 25° C,"[13]; 102 kD polypeptide, 19h",36 ± 3 % initial value
same,Relative phosphotyrosyl content after incubation at 25° C,"[13]; 228.5 kD polypeptide, 2h",65 ± 2 % initial value
same,Relative phosphotyrosyl content after incubation at 25° C,"[13]; 228.5 kD polypeptide, 19h",28 ± 3 % initial value
same,pH of maximum activity,potato phosphatase [14],~5.8
same,pH of half-maximal activity,potato phosphatase [14]; listed as potato phosphatase,4.9 and 6.7
